Results reported in article doi:10.1101/2024.03.12.584565 (bioRxiv, 2024).

How the values were obtained:
Test in all cases: pull-down
[1] = target: T1, Flag-tagged Pds5b-WT, treated with Nek2a and Cdk1/2-cyclin A2 in vitro (human, UniProt Q9NTI5 1-1447)
T1 sequence: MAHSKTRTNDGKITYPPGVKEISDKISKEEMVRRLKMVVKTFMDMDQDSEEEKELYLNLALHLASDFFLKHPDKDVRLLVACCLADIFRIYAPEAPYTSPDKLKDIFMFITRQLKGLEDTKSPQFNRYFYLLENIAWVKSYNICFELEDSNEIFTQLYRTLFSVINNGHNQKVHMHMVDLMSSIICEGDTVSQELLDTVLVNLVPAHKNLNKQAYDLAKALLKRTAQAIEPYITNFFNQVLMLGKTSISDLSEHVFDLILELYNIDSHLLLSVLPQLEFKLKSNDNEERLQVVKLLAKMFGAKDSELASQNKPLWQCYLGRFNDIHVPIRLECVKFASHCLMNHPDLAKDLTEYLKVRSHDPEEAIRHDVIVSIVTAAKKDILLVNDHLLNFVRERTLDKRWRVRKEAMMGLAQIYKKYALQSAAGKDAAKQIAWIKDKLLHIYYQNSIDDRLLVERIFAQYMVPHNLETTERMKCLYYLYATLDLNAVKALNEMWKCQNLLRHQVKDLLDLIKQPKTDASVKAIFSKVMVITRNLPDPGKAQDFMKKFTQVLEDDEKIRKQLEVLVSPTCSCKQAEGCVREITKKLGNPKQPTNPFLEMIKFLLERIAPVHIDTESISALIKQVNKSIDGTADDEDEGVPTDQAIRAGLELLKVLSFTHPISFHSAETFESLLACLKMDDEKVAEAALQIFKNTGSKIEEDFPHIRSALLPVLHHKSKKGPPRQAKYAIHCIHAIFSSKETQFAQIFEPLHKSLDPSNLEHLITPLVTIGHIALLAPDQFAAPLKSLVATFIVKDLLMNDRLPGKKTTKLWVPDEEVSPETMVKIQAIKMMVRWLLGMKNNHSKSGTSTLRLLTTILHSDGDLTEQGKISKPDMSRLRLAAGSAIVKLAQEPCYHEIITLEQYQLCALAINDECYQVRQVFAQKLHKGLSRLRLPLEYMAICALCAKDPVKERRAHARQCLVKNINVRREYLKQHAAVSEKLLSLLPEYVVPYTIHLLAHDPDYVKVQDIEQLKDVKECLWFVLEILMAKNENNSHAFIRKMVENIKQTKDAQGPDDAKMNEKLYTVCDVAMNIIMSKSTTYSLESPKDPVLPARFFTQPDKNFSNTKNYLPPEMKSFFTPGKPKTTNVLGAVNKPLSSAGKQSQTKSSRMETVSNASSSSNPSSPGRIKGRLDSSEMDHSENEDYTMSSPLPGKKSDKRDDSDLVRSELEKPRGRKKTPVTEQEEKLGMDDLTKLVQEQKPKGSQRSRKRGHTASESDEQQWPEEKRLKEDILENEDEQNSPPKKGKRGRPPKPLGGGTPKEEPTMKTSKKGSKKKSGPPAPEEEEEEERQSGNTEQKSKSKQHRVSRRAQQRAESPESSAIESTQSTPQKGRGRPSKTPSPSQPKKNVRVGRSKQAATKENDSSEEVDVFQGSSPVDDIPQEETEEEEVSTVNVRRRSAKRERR

[2] = target: T2, Flag-tagged Pds5b, co-expressed with Δ86-cyclin A2 (human, UniProt Q9NTI5 1-1447)
T2 sequence: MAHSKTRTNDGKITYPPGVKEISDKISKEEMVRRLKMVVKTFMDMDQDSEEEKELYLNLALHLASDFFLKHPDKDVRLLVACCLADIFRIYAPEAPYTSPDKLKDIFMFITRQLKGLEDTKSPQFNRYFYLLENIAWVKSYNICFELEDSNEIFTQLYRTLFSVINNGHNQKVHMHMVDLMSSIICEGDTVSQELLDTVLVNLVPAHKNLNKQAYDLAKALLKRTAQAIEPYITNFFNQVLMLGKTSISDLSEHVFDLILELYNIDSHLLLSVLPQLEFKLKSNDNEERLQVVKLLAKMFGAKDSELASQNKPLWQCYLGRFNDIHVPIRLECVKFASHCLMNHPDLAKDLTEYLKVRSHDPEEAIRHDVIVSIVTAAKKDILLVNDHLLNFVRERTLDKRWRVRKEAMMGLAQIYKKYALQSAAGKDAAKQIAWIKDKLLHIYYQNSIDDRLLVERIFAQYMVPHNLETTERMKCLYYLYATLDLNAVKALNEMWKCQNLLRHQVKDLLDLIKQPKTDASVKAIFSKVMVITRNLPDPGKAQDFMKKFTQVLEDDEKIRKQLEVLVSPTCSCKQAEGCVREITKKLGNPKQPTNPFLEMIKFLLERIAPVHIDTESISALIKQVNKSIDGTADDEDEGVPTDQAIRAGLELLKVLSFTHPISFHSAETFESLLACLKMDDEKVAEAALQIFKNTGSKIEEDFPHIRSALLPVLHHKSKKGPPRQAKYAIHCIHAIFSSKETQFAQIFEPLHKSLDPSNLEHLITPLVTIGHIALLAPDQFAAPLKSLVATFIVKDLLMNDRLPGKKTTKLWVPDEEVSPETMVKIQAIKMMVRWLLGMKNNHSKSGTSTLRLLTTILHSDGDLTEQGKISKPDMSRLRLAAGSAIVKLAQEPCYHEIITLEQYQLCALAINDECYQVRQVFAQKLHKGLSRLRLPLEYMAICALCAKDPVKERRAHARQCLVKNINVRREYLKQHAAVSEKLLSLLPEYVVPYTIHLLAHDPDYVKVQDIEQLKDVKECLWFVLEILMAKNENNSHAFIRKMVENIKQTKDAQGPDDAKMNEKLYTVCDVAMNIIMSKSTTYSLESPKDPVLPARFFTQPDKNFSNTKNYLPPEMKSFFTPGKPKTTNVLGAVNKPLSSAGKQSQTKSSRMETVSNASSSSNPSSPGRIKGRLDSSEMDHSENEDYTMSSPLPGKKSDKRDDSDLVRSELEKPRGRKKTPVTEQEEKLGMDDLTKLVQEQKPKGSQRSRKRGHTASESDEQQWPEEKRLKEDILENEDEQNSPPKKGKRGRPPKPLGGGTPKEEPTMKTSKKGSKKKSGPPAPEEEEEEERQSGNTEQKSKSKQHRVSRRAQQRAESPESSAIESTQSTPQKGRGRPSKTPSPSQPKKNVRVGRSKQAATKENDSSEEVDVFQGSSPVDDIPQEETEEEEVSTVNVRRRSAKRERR

Flag-tagged Pds5a = target: T3, Flag-tagged Pds5a (human, UniProt Q29RF7 1-1337)
T3 sequence: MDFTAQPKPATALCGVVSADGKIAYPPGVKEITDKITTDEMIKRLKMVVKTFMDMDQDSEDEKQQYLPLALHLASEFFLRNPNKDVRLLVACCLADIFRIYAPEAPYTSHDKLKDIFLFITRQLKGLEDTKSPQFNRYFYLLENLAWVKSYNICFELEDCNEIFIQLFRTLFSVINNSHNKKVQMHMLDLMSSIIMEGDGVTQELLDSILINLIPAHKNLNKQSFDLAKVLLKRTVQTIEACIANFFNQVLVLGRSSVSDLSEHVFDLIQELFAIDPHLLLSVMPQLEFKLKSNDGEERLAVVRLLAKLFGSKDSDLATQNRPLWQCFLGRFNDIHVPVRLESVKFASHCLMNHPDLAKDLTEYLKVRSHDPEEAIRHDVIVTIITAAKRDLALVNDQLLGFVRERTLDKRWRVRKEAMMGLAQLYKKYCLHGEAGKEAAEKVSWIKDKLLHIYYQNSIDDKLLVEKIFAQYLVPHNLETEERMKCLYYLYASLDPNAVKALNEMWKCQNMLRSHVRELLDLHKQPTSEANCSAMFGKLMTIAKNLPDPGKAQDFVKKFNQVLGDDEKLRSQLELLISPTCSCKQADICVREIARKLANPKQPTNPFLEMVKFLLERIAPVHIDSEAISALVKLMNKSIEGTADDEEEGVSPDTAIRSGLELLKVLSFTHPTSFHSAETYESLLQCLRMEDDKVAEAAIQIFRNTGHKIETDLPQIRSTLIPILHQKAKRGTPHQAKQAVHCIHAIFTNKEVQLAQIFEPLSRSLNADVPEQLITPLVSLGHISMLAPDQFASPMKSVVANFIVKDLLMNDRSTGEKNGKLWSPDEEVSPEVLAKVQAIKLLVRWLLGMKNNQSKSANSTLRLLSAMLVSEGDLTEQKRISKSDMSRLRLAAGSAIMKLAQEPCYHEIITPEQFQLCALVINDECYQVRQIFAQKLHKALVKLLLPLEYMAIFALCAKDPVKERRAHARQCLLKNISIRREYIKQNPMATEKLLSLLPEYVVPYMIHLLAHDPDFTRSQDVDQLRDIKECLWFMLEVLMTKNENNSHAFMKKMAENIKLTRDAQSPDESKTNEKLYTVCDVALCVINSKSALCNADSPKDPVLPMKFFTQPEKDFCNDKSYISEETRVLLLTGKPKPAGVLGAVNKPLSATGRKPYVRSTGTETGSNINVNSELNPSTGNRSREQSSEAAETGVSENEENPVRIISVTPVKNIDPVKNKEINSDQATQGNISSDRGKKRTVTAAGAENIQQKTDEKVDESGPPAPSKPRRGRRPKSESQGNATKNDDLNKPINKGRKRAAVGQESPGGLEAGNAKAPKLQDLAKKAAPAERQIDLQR

Measured: binding result

B1: recombinant human Wapl (natural protein)
chain: MTSRFGKTYSRKGGNGSSKFDEVFSNKRTTLSTKWGETTFMAKLGQKRPNFKPDIQEIPKKPKVEEESTGDPFGFDSDDESLPVSSKNLAQVKCSSYSESSEAAQLEEVTSVLEANSKISHVVVEDTVVSDKCFPLEDTLLGKEKSTNRIVEDDASISSCNKLITSDKVENFHEEHEKNSHHIHKNADDSTKKPNAETTVASEIKETNDTWNSQFGKRPESPSEISPIKGSVRTGLFEWDNDFEDIRSEDCILSLDSDPLLEMKDDDFKNRLENLNEAIEEDIVQSVLRPTNCRTYCRANKTKSSQGASNFDKLMDGTSQALAKANSESSKDGLNQAKKGGVSCGTSFRGTVGRTRDYTVLHPSCLSVCNVTIQDTMERSMDEFTASTPADLGEAGRLRKKADIATSKTTTRFRPSNTKSKKDVKLEFFGFEDHETGGDEGGSGSSNYKIKYFGFDDLSESEDDEDDDCQVERKTSKKRTKTAPSPSLQPPPESNDNSQDSQSGTNNAENLDFTEDLPGVPESVKKPINKQGDKSKENTRKIFSGPKRSPTKAVYNARHWNHPDSEELPGPPVVKPQSVTVRLSSKEPNQKDDGVFKAPAPPSKVIKTVTIPTQPYQDIVTALKCRREDKELYTVVQHVKHFNDVVEFGENQEFTDDIEYLLSGLKSTQPLNTRCLSVISLATKCAMPSFRMHLRAHGMVAMVFKTLDDSQHHQNLSLCTAALMYILSRDRLNMDLDRASLDLMIRLLELEQDASSAKLLNEKDMNKIKEKIRRLCETVHNKHLDLENITTGHLAMETLLSLTSKRAGDWFKEELRLLGGLDHIVDKVKECVDHLSRDEDEEKLVASLWGAERCLRVLESVTVHNPENQSYLIAYKDSQLIVSSAKALQHCEELIQQYNRAEDSICLADSKPLPHQNVTNHVGKAVEDCMRAIIGVLLNLTNDNEWGSTKTGEQDGLIGTALNCVLQVPKYLPQEQRFDIRVLGLGLLINLVEYSARNRHCLVNMETSCSFDSSICSGEGDDSLRIGGQVHAVQALVQLFLERERAAQLAESKTDELIKDAPTTQHDKSGEWQETSGEIQWVSTEKTDGTEEKHKKEEEDEELDLNKALQHAGKHMEDCIVASYTALLLGCLCQESPINVTTVREYLPEGDFSIMTEMLKKFLSFMNLTCAVGTTGQKSISRVIEYLEHC
binds: all assays above
